This note sets out measurements from US20230227547A1, “ANTIBODY-PAYLOAD CONJUGATES WITH ENHANCED DELIVERY DOMAIN AND USES THEREOF” (IPROGEN BIOTECH INC., priority 2019, published 2023).

The experiment has as its target CD22 (human) (UniProt P20273). In words: cell-based or functional assay.

The substance “Anti-CD22 mAb-LL37-MMAE8 (Inotuzumab ADC with LL37) (antibody)” had an IC50 (nM), XTT viability, RL cells, 72 h of 0.235 nM and an IC50 (nM), XTT viability, Ramos cells, 72 h of 0.035 nM.
Take “Anti-CD22 mAb-MMAE8 (Inotuzumab ADC) (antibody)”: the IC50 (nM), XTT viability, RL cells, 72 h came out at 0.26 nM and the IC50 (nM), XTT viability, Ramos cells, 72 h stood at 0.04 nM.
